In data set [1] the test system is H3 peptide previously di-methylated at K27.
Data set [2] relates to GST-fusion histone H3 peptide (residues 1-57), K27R mutant [GST: P08515].
The test system of data set [3] is full-length free histone H3 (individual core histone).
Data set [4] deals with peptide containing H3 residues 1-20.
The subject of data set [5] is GST-fusion histone H3 peptide (residues 1-57), wild-type.
Data set [6] deals with H3 peptide containing residues 15-30.
The subject of data set [7] is H3 peptide phosphorylated at S28.

With SET protein from chlorella virus NY-2A, the “methylation activity with H3 peptides (14C-methyl-SAM)” value (shortened to “methylation activity with H3 peptides”) in data set [1] was “They showed little methyltransferase activity if the H3 peptide was previously di-methylated at K27 or phosphorylated at S28”; in data set [4], “these viral SET proteins only methylated a H3 peptide containing residues 15-30 but not a peptide containing H3 residues 1-20”; in data set [6], “these viral SET proteins only methylated a H3 peptide containing residues 15-30 but not a peptide containing H3 residues 1-20”; in data set [7], “They showed little methyltransferase activity if the H3 peptide was previously di-methylated at K27 or phosphorylated at S28”. Besides, the “HMT activity on GST-histone H3 (residues 1-57)” value (“HMT activity on GST-histone H3” for short) in [2] and in data set [5] was “these viral SET proteins had robust methylation activity on wild-type H3 but little or diminished activity on the K27R mutant” each time. The histone methyltransferase activity result (in [3]; in the data set on core histone H2A; with core histone H4; in the data set on core histone H2B) was “the SET proteins from these 3 viruses selectively methylate H3 (data not shown)” throughout.
Take SET protein from chlorella virus NY-2B: the “methylation activity with H3 peptides” value in data set [1] is “They showed little methyltransferase activity if the H3 peptide was previously di-methylated at K27 or phosphorylated at S28”; in [4], “these viral SET proteins only methylated a H3 peptide containing residues 15-30 but not a peptide containing H3 residues 1-20”; in data set [6], “these viral SET proteins only methylated a H3 peptide containing residues 15-30 but not a peptide containing H3 residues 1-20”; in [7], “They showed little methyltransferase activity if the H3 peptide was previously di-methylated at K27 or phosphorylated at S28”. In addition, the “HMT activity on GST-histone H3” value in data set [2] and in [5] was “these viral SET proteins had robust methylation activity on wild-type H3 but little or diminished activity on the K27R mutant” in each case. The histone methyltransferase activity entry (in data set [3]; with core histone H2A; in the data set with core histone H4; with core histone H2B) was “the SET proteins from these 3 viruses selectively methylate H3 (data not shown)” in each case.
As for SET protein from chlorella virus MA-1D, the “methylation activity with H3 peptides” value in [1] is on record as “They showed little methyltransferase activity if the H3 peptide was previously di-methylated at K27 or phosphorylated at S28”; in data set [4], “these viral SET proteins only methylated a H3 peptide containing residues 15-30 but not a peptide containing H3 residues 1-20”; in [6], “these viral SET proteins only methylated a H3 peptide containing residues 15-30 but not a peptide containing H3 residues 1-20”; in [7], “They showed little methyltransferase activity if the H3 peptide was previously di-methylated at K27 or phosphorylated at S28”. Moreover, the “HMT activity on GST-histone H3” value in [2] and in data set [5] was “these viral SET proteins had robust methylation activity on wild-type H3 but little or diminished activity on the K27R mutant” in each case. Further, the histone methyltransferase activity entry (in [3]; in the data set on core histone H2A; in the data set with core histone H4; in the data set on core histone H2B) was “the SET proteins from these 3 viruses selectively methylate H3 (data not shown)” throughout.

For the origin of these results see patent US20110123511.
